B1: CPEB3 Ribozyme (parent)
chain: GGGGGCCACAGCAGAAGCGUUCACGUCGCGGCCCCUGUCAGAUUCUGGUGAAUCUGCGAAUUCUGCUGU

Variants of: B1
Assay: self-cleavage, relative activity (ratio to wild type); higher = more cleavage; co-transcriptional

Variant	self-cleavage
C33A A52U	0.454
C33A A52G	0.785
C34A U43C	0.496
C35A A40G	0.212
C35A A40C	0.288
C35A A40U	0.231
C33G C54A	0.369
C35G	0.478
C35A	0.281
C35U	0.973
C33U U62C	0.847
C33U U62G	0.845
C33U U62A	0.956
C34U C66G	0.95
C34G C39U	0.439
C34G C39G	0.455
C33A A60C	0.346
C34U G50U	0.987
C33A G58A	0.811
C35G A59G	0.488
C35G A59C	0.307
C34U U67C	1.01
C34U U67A	1.01
C35U U43G	0.753

Variant	self-cleavage
C34G U53A	0.569
C35U U62C	0.752
C34G A42G	0.637
C34G A42U	0.544
C34A A51U	0.521
C34A A51C	0.615
C35A A51U	0.223
C34A U36G	0.316
C34A U36C	0.568
C35U C57G	0.302
C35U C57U	0.373
C35U U67A	0.95
C33A G68C	0.967
C35G C66G	0.437
C33G U38G	0.324
C33G U38C	0.45
C35G U55G	0.238
C35G U55A	0.267
C35G U55C	0.33
C34A G50A	0.822
C34A G50C	0.773
C33G A51C	0.335
C33A G65A	0.786
C33A G65U	0.451

Variant	self-cleavage
C34U U64A	0.974
C33U G37U	0.245
C34U G41U	0.901
C34U G41C	0.729
C33G U69C	0.972
C35A A52U	0.274
C34A G65C	0.485
C35G U61G	0.296
C35G U61C	0.257
C34U A59U	0.778
C35G C63U	0.47
C35G C63G	0.361
C34A C66A	0.634
C34G G37C	0.213
C33U U67C	0.971
C33U C45U	0.976
C34A U49G	0.865
C33G U36C	0.531
C35A U46C	0.275
C33G C66G	0.625
C33U C35A	0.233
C34A G48A	0.862
C35A C54G	0.199
C33G U46A	0.438

Variant	self-cleavage
C35A C63G	0.22
C35A C63U	0.251
C35G U53A	0.407
C35U A52C	1.01
C33A U46C	0.847
C33A U46G	0.737
C33A U46A	0.617
C35G U49A	0.444
C35G U49G	0.373
C34U U36A	0.228
C34U U53A	0.975
C34A U46C	0.829
C34A U46A	0.848
C34U U61C	0.888
U36A A59U	0.146
C34U U43C	0.892
C34U U43A	0.967
C35G A42C	0.308
C35U C66U	0.905
C35U C66G	0.813
C33A U67C	0.928
C33G A42C	0.314
C33G A42G	0.522
C35U G65C	0.568

Variant	self-cleavage
C34G C66A	0.411
C34G C66U	0.643
C35A U67A	0.239
C35A U67G	0.288
C34U G65U	0.824
C33A C34U	0.489
C33A G48A	0.95
C34A U44A	0.511
C35G U62C	0.242
C33U A60C	0.319
C35G U67C	0.486
C33U G41A	0.827
C35U G50U	0.94
U36A C39G	0.15
U36A C39U	0.237
C34A A40C	0.291
C33G C34U	0.671
C33G C34G	0.217
C33G C34A	0.253
C34G G56C	0.261
C35A C45A	0.22
C35A C45U	0.261
C35A C45G	0.179
C35U U64G	0.874

Variant	self-cleavage
C34A C45G	0.427
C34A C45A	0.528
C35G U44G	0.373
C34G U55G	0.475
C34G U55A	0.386
C34G U55C	0.327
C35A C39A	0.209
C34G C57A	0.311
C34G C57U	0.348
C34A C39A	0.346
C35G U64A	0.402
C35G C54U	0.497
C35G C54A	0.305
C34A U55A	0.529
C34U C57G	0.261
U36A A51G	0.249
C34G U43A	0.551
C33G G68C	0.877
C33G G68U	0.861
C33U U44C	0.938
C33U U44A	1.01
C33U C57G	0.247
C33U C57A	0.323
C35G G41C	0.295

Variant	self-cleavage
C35G G41A	0.294
C34A U69C	0.992
C33A A59U	0.475
C33A A59G	0.738
C35G G58A	0.243
C35A A60U	0.181
C35U C45U	0.994
C35U C45A	0.985
C35A G48A	0.248
C35A G48C	0.281
C34U G68U	1.04
C33A U62C	0.584
C33A U62G	0.559
C35A U69G	0.356
C33G U53C	0.407
C33A G56A	0.758
C33A C45G	0.665
C33A C45A	0.523
C35U C54G	0.72
C35U C54U	0.929
C34G A52C	0.618
C34G A52G	0.771
C35A G68A	0.358

From the RNAGym collection of RNA variant scans (doi:10.7554/elife.80360)
